Results reported in patent publication US20230340027A1 (TECHNION RESEARCH AND DEVELOPMENT FOUNDATION, published 2023).
Positions of bridges follow the written chain, without caps; N, C: chain ends. code X = not defined here

Experiments:
biotin-tetra-UbK48 [1] = target: T1, biotin-tetra-UbK48 (UniProt P0CG48 1-76, Ub monomers linked to one another via Lys48 (K48); biotin tag (site not stated)); assay: direct fluorescence plate binding: biotin-tetra-UbK48 on a streptavidin plate, labeled peptide titrated, bound peptide released with 6 M Gn.HCl and read (ex 480 nm, em 525 nm); one-site fit
T1 construct: Immobilised on streptavidin-coated 96-well plates (1 ug per well); one ubiquitin repeat is meant; also called biotin tagged tetra-UbK48

biotin-tetra-UbK48 [2] = target: T1, biotin-tetra-UbK48; assay: the filing's modified fluorescence assay, FITC-labelled peptide on tetra-UbK48 (FIGS. 1G and 26)
Protocol: (1i) A non-limiting schematic representation of the screening of various unlabeled peptides. (1A) An unlabeled cyclic peptide introduced for binding to the biotin-tetra Ub. (1B) A labeled cyclic peptide is introduced to compete with the binding of the unlabeled peptides to the biotin-tetra Ub followed by washing the unbounded peptides. (1C) The bound peptides are released using Guanidinium-HCl (Gn·HCl) and the fluorescence intensity is measured. (1ii) A non-limiting schematic representation for measuring the dissociation constant (Kd) of FITC-labeled peptide with different concentrations. (1D) A FITC-labeled cyclic peptide with different concentrations are introduced in different wells for binding to the biotin-tetra Ub. (1E) Washing out the unbounded labeled cyclic peptide. (1F) The bound peptides are released using Gn·HCl and the fluorescence intensity is measured. […] All measurements were performed in triplicates.
The inventors envisioned a screening strategy to proceed through four main steps, each terminated by washings with binding buffer. First, biotin tagged tetra-UbK48 was immobilized in a constant amount (1 μg per well) in streptavidin covered 96 well plate (FIG. 1(i and ii)). […] Finally, the bound peptides were released from wells by treatment with 6 M guanidine hydrochloride (Gn·HCl) solution followed by measuring the gained fluorescence (FIG. 1(i)).

B1: (Ub4_ix_S7C)2CH2-FITC (peptide)
peptide: {CH2CO}-WLYLDDCGDWWICG-{code X-C(fluorescein-5-maleimide)-NH2}
modifications: thioether N-13 (inferred); reading uncertain; also: dimer: Cys7 joined to Cys7 of second copy by -S-CH2-S-, residue 15 not given here
notes: Dimer of peptide 29, so each chain carries the label; also called FITC labeled stapled dimer 30; 30
- EC50 (read off the curve) (biotin-tetra-UbK48 [1]): ~10 nM
- Kd (biotin-tetra-UbK48 [2]): 12.3 nM
